Measured values reported in US20240425607A1 (published 2024).

T1: human IL-18BP (recombinant, construct not stated) (UniProt O95998 31-194)
T1 chain: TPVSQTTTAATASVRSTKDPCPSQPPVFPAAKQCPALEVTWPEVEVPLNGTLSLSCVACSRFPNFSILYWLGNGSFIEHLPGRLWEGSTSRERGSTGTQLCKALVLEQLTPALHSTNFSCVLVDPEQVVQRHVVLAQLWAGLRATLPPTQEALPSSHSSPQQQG


Key:
[1] = molecular target: T1, human IL-18BP (recombinant, construct …); assay: blocking ELISA
Cyno IL18-IL18BP = Cyno IL18-IL18BP (cynomolgus monkey); assay: blocking ELISA

IC50 [1] [µg/mL]	IC50 (Cyno IL18-IL18BP) [µg/mL]	Binder
0.278	–	ADI-66692 (antibody, V domains shown) VH: not shown VL: DIQMTQSPSSVSASVGDRVTITCRASQGIDSWLAWYQQKPGKAPKLLIYAASSLQSGVPSRFSGSGSGTDFTLTISSLQPEDFATYYCQHAYSFPYTFGGGTKVEIK
0.208	8.18	ADI-66716 (antibody, V domains shown) VH: QLQLQESGPGLVKPSETLSLTCTVSGGSISSSDYYWGWIRQPPGKGLEWIGSIYYSGSTYYNPSLKSRVTISVDTSKNQFSLKLSSVTAADTAVYYCARGPHRQVFDYWGQGTLVTVSS VL: DIQMTQSPSSVSASVGDRVTITCRASQGISSWLAWYQQKPGKAPKLLIYAASSLQSGVPSRFSGSGSGTDFTLTISSLQPEDFATYYCQQGSSFPYTFGGGTKVEIK
